Experimental data taken from publication PMC7242751, “Novel ssDNA Ligand Against Ovarian Cancer Biomarker CA125 With Promising Diagnostic Potential”.

Biological target: CA125 (native antigen) (human, UniProt Q8WXI7 1-14451)
Experiment: nitrocellulose membrane binding, elution and nanodrop quantification; CA125 20 U/mL immobilized; 1 mM Mg2+ in binding buffer; SELEX binding buffer 10 mM PBS, 1 mM MgCl2, 0.01% herring sperm DNA, 25 C; KD in binding buffer (composition not restated), 2 h at RT; pH not stated
Conditions: protein: native

Row | Binder | Kd
1 | Apt 2.26 (ssDNA) DNA: TAGGGAAGAGAAGGACATATGATTTTAGGGAAGAGAAGGACTTTTATGCCGCCTTGACTAGTACATGACCACTTGA | 166 nM
2 | Apt 2.43 (ssDNA) DNA: TAGGGAAGAGAAGGACATATGATGATCAACAACACAAGGGGGGGGGTATCTAGTTGACTAGTACATGACCACTTGA | 239 nM
